Assay results taken from the RNAGym collection of RNA variant scans (doi:10.1101/gr.219683.116).

B1: mRNA-splicing (parent)
chain: AGUUGCUGCUGGGAGCUCCAGCACAGUGAAAUGGACAGAAGGGCAGAGCAA

Variants of: B1
Experiment: exon inclusion enrichment index; higher = more inclusion; WT1 exon 5 minigene, HEK293

Point of comparison: AGUUCACACAGGGAGCUCCAGCACAGUGAAAUGGACAGAAGGGCGGAGCAA, “exon inclusion enrichment index” value 0.276. Against it:
- AGUUCACACAGGGAGCUCCAGCACAGUGAAAUGGACAGAAGGGCUGAGCAA — lower, 0.211
- AGUUCACACAGGGAGCUCGGGCACAGUGAAAUGGACAGAAGGGCAGAGCAA — lower, 0.0527
- AGUUCACACAGGGAGCUCGCGCACAGUGAAAUGGACAGAAGGGCAGAGCAA — lower, 0.111
- AGUUCACACAGGGAGCUCCAGCACAGUGAAAUGGACAGAAGGGCAGCACAA — lower, 0.0538
- AGUUCACACAGGGAGCUCCAGCACAGUGAAAUGGACAGAAGGGCAGCUCAA — lower, 0.0993
- AGUUCACACAGGGAGCUCCAGCACAGUGAAAUGGACAGAAGGGCAGCCCAA — lower, 0.224
- AGUUCACACAGGGAGCUCCAGCACAGUGAAAUGGACAGAAGGGCAGUGCAA — lower, 0.108
- AGUUCACACAGGGAGCUCCAGCACAGUGAAAUGGACAGAAGGGCAGGGCAA — lower, 0.0221
- AGUUCACACAGGGAGCUCCAGCACAGUGAAAUGGACAGAAGGGCAGCGCAA — lower, 0.232
- AGUUCACACAGGGAGAGCCAGCACAGUGAAAUGGACAGAAGGGCAGAGCAA — lower, 0.0171
- AGUUCACACAGGGAGACCCAGCACAGUGAAAUGGACAGAAGGGCAGAGCAA — lower, 0.0679
- AGUUCACACAGGGAGAACCAGCACAGUGAAAUGGACAGAAGGGCAGAGCAA — lower, 0.05
- AGUUCACACAGGGAGCUCCAGCACAGUGAAAUGGACAGAAGGGCAGGACAA — lower, 0.0475
- AGUUCACACAGGGAGCUCCAGCACAGUGAAAUGGACAGAAGGGCAGGUCAA — lower, 0.00361
- AGUUCACACAGGGAGCUCCAGCACAGUGAAAUGGACAGAAGGGCAGGCCAA — lower, 0.0266
- AGUUCACACAGGGAGCUACAGCACAGUGAAAUGGACAGAAGGGCAGAGCAA — lower, 0.0467
- AGUUCACACAGGGAGCUUCAGCACAGUGAAAUGGACAGAAGGGCAGAGCAA — lower, 0.054
- AGUUCACACAGGGAGCUGCAGCACAGUGAAAUGGACAGAAGGGCAGAGCAA — lower, 0.097
- AGUUCACACAGGGAGCUGGAGCACAGUGAAAUGGACAGAAGGGCAGAGCAA — lower, 0.186
- AGUUCACACAGGGAGCUGUAGCACAGUGAAAUGGACAGAAGGGCAGAGCAA — lower, 0.00896
- AGUUCACACAGGGAGCUGAAGCACAGUGAAAUGGACAGAAGGGCAGAGCAA — lower, 0.143
- AGUUCACACAGGGAGGUCCAGCACAGUGAAAUGGACAGAAGGGCAGAGCAA — lower, 0.043
- AGUUCACACAGGGAGAUCCAGCACAGUGAAAUGGACAGAAGGGCAGAGCAA — lower, 0.0973
- AGUUCACACAGGGAGUUCCAGCACAGUGAAAUGGACAGAAGGGCAGAGCAA — lower, 0.0868
- AGUUCACACAGGGAGCUCCAGCACAGUGAAAUGGACAGAAGGGCUAAGCAA — lower, 0.0675
- AGUUCACACAGGGAGCUCCAGCACAGUGAAAUGGACAGAAGGGCUUAGCAA — lower, 0.0227
- AGUUCACACAGGGAGCUCCAGCACAGUGAAAUGGACAGAAGGGCUCAGCAA — lower, 0.0541
- AGUUCACACAGGGAGCUCCAGCACAGUGAAAUGGACAGAAGGGCAGUCCAA — lower, 0.0757
- AGUUCACACAGGGAGCUCCAGCACAGUGAAAUGGACAGAAGGGCAGUACAA — lower, 0.071
- AGUUCACACAGGGAGCUCCAGCACAGUGAAAUGGACAGAAGGGCAGUUCAA — lower, 0.111
- AGUUCACACAGGGAGCUUAAGCACAGUGAAAUGGACAGAAGGGCAGAGCAA — lower, 0.00114
- AGUUCACACAGGGAGCUUGAGCACAGUGAAAUGGACAGAAGGGCAGAGCAA — lower, 0.0165
- AGUUCACACAGGGAGCUUUAGCACAGUGAAAUGGACAGAAGGGCAGAGCAA — lower, 0.00236
- AGUUCACACAGGGAGCUCCAGCACAGUGAAAUGGACAGAAGGGCGCAGCAA — lower, 0.26
- AGUUCACACAGGGAGCUCCAGCACAGUGAAAUGGACAGAAGGGCGUAGCAA — lower, 0.0847
- AGUUCACACAGGGAGCUCCAGCACAGUGAAAUGGACAGAAGGGCGAAGCAA — higher, 0.559
- AGUUCACACAGGGAGCUCGAGCACAGUGAAAUGGACAGAAGGGCAGAGCAA — lower, 0.078
- AGUUCACACAGGGAGCUCAAGCACAGUGAAAUGGACAGAAGGGCAGAGCAA — lower, 0.0348
- AGUUCACACAGGGAGGACCAGCACAGUGAAAUGGACAGAAGGGCAGAGCAA — lower, 0.181
- AGUUCACACAGGGAGGGCCAGCACAGUGAAAUGGACAGAAGGGCAGAGCAA — lower, 0.00731
- AGUUCACACAGGGAGGCCCAGCACAGUGAAAUGGACAGAAGGGCAGAGCAA — lower, 0.0308
- AGUUCACACAGGGAGCUAUAGCACAGUGAAAUGGACAGAAGGGCAGAGCAA — lower, 0.00173
- AGUUCACACAGGGAGCUAGAGCACAGUGAAAUGGACAGAAGGGCAGAGCAA — lower, 0.00323
- AGUUCACACAGGGAGCUAAAGCACAGUGAAAUGGACAGAAGGGCAGAGCAA — lower, 0.0025
- AGUUCACACAGGGAGUACCAGCACAGUGAAAUGGACAGAAGGGCAGAGCAA — lower, 0.048
- AGUUCACACAGGGAGUGCCAGCACAGUGAAAUGGACAGAAGGGCAGAGCAA — lower, 0.0279
- AGUUCACACAGGGAGUCCCAGCACAGUGAAAUGGACAGAAGGGCAGAGCAA — lower, 0.0203
- AGUUCACACAGGGAGCUCAGGCACAGUGAAAUGGACAGAAGGGCAGAGCAA — lower, 0.00417
- AGUUCACACAGGGAGCUCACGCACAGUGAAAUGGACAGAAGGGCAGAGCAA — lower, 0.0294
- AGUUCACACAGGGAGCUCAUGCACAGUGAAAUGGACAGAAGGGCAGAGCAA — lower, 0.00249
